{"source": "patent US8663916B2", "about": "(priority 2006, dated 2014)", "molecules": {"B1": {"name": "Ph-CA1: fusion peptide of colicin Ia with Candida albicans alpha-mating pheromone c-terminal to the colicin Ia; SEQ ID NO:5; from plasmid pCHCCA1 (protein)", "chain": "DAINFTTEFLKSVSEKYGAKAEQLAREMAGQAKGKKIRNVEEALKTYEKYRADINKKINAKDRAAIAAALESVKLSDISSNLNRFSRGLGYAGKFTSLADWITEFGKAVRTENWRPLFVKTETIIAGNAATALVALVFSILTGSALGIIGYGLLMAVTGALIDESLVEKANKFWGIGFRLYNFGYFEPGK", "modifications": "Amino acid sequence of Ph-CA1", "notes": "fusion peptide of colicin Ia with Candida albicans alpha-mating pheromone c-terminal to the colicin Ia; from plasmid pCHCCA1"}, "B2": {"name": "Ph-CA2: fusion peptide of colicin Ia with Candida albicans alpha-mating pheromone n-terminal to the colicin Ia; SEQ ID NO:7; from plasmid pCHCCA2 (protein)", "chain": "GFRLYNFGYFEPGKDAINFTTEFLKSVSEKYGAKAEQLAREMAGQAKGKKIRNVEEALKTYEKYRADINKKINAKDRAAIAAALESVKLSDISSNLNRFSRGLGYAGKFTSLADWITEFGKAVRTENWRPLFVKTETIIAGNAATALVALVFSILTGSALGIIGYGLLMAVTGALIDESLVEKANKFWGI", "modifications": "Amino acid sequence of Ph-CA2", "notes": "fusion peptide of colicin Ia with Candida albicans alpha-mating pheromone n-terminal to the colicin Ia; from plasmid pCHCCA2"}}, "key": {"[1]": {"tested_on": "ATCC 10231 C. albicans cells", "assay": "cell growth inhibition assay in M-H liquid medium (turbidity, filament sedimentation, microscopy)", "type": "cell-based, Candida albicans", "settings": "for spores under microscope: 2 ul treated medium on a slide, Ph-CA1 10 ug/ml, amphotericin B 2 ug/ml, FIG. 5", "text": "FIG. 4 depicts the inhibition effects of Ph-CA against the growth of ATCC 10231 C. albicans cells in M-H liquid medium. The amount of sedimentary fungal filaments at the bottom of flasks indicated the inhibition effects of treatment agents. (A) Control, (B) fluconazole, (C) amphotericin B, (D) Ph-SA, (E) Ph-CA2 produced by pCHCCA2 plasmid and (F) Ph-CA1.\nFIG. 5 depicts the inhibition effects of Ph-CA against the growth of C. albicans cells in liquid medium. The amount of spores and filaments of ATCC 10231 C. albicans cells indicated the inhibition effects. (A) Control, (B) fluconazole, (C) amphotericin B, (D) Ph-SA, (E) Ph-CA2 (F) Ph-CA1. X400.\nIn vitro cell growth inhibition assays were performed in 100 ml Klett flasks containing 10 ml of M-H medium which were monitored turbimetrically with a BioRad 550 microplate reader at OD595 nm every 60 min. The filament (mycelium) precipitation at the bottom of flask was counted with a digital photo-recorder every 6 hrs. Cells were inoculated to an initial cell density of about 2.5×10^5 CFU/ml and shaken at 200 rpm on an orbital shaker at 35° C. Sedimentary fungal filaments appeared in about 36 hrs growing.\nPh-CA1 and Ph-CA2 were added at the start of the culture. The same amount of borate stock solution (50 mM borate, PH9.0), Ph-SA (pheromonicin constructed by colicin Ia and staphylococcal pheromone AgrD1)(10 ug/ml) and several antibiotics preparations (2 ug/ml amphotericin B, 6 ug/ml fluconazole) were used as controls. All assays were expressed in turbidometric absorbance units measured at 595 nm and pictures of the filament sedimentation at the bottom of the flask were taken."}, "[2]": {"tested_on": "Magnaporthe grisea", "type": "in vivo, rice (seed, gangyou 725)", "settings": "for Grades of impaired leaves 0 (number of leaves) / Grades of impaired leaves 1 (number of leaves) / Grades of impaired leaves 3 (number of leaves) / Grades of impaired leaves 5 (number of leaves) / Incident rate / Infected index / Protecting efficacy: seven days after treatment, sprayed twice: tricyclazole 0.5 and 1 mg/ml, Ph-CA1 1 and 2 ug/ml, 200 leaves"}, "[3]": {"tested_on": "Magnaporthe grisea", "type": "in vivo, rice (seed, gangyou 725)", "settings": "sprayed once at head stage: tricyclazole 1 mg/ml, Ph-CA1 2 ug/ml"}, "[4]": {"tested_on": "Magnaporthe grisea (ACCC 30320 strain)", "type": "cell-based", "settings": "PDA solid medium; 100 ul Ph-CA1 25 and 50 ug/ml; FIG. 9"}, "[5]": {"tested_on": "C. albicans (ATCC 10231)", "assay": "systemic candidiasis in mice, survival", "type": "in vivo, KungMing mice", "procedure": "KungMing mice, half male and half female, weighing 18-22 g were injected intraperitoneally with 0.5 ml of C. albicans (ATCC 10231), 10^8 CFU/ml. One hour after C. albicans injection, mice were injected intraperitoneally with 0.9% saline […] alone as control (n=10) (C), or with amphotericin B (n=10, 1 ug/gm/day) (B), or with Ph-CA1 (n=10, 5 ug/gm/day) (A) daily for 14 days. The number of surviving animals was determined every 24 hours (FIG. 11).\nKungMing mice, half male and half female, weighing 18-22 g were injected intraperitoneally with 0.7 ml of C. albicans (ATCC 10231), 10^8 CFU/ml. One hour after C. albicans injection, mice were injected in the tail vein with 0.9% saline alone as control (n=10) (C), or with amphotericin B (n=10, 1 ug/gm) (B), or with Ph-CA1 (n=10, 5 ug/gm) (A). The mice were then injected intraperitoneally with 0.9% saline alone, or with amphotericin B (n=10, 1 ug/gm), or with Ph-CA1 (n=10, 5 ug/gm) each day. The number of surviving animals was determined every 24 hours (FIG. 12)."}, "[6]": {"assay": "repeated intraperitoneal dosing in mice, bodyweight and histology", "type": "in vivo, KungMing mice", "settings": "200 ug/mouse/day intraperitoneally for 20 days", "procedure": "KungMing mice (n=10), half male and half female, weighing 18-22 g were injected intraperitoneally with Ph-CA1 (200 ug/mouse/day) for 20 days. The bodyweight of all mice was increased."}, "[7]": {"tested_on": "Cryptococcus neoformans (Huaxi 30168 strain)", "type": "cell-based"}, "[8]": {"tested_on": "Aspergillus flavus (Huaxi 30255 strain)", "type": "cell-based"}, "[9]": {"tested_on": "Fusarium moniforme (ACCC 30133 strain)", "type": "cell-based"}, "[10]": {"tested_on": "ATCC 10231 C. albicans cells", "assay": "fluorescent imaging with FITC/propidium iodide", "type": "cell-based, Candida albicans", "settings": "10 ug/ml, 24 hrs; 50 nM FITC/600 nM propidium iodide", "procedure": "FIG. 6 depicts the fluorescent imaging of ATCC 10231 C. albicans cells treated by Ph-CA1 and stained with 50 nM FITC/600 nM propidium iodide. […] X400."}, "[11]": {"tested_on": "Cryptococcus neoformans, Aspergillus flavus, Magnaporthe grisea and Fusarium moniforme cells", "type": "cell-based", "settings": "on a molar basis"}, "[12]": {"tested_on": "Candida albicans (ATCC 10231)", "type": "cell-based"}}, "note": "Where two headings read alike, the source gives them in different places."}
{"molecule": "OC(Cn1cncn1)(Cn1cncn1)c1ccc(F)cc1F", "note": "[Fluconazole, fluconazole, reference compound]", "values": [{"measurement": "effect on growth of C. albicans", "setting": "[1]; 6 ug/ml, M-H liquid medium", "result": "no effect"}]}
{"molecule": "Cc1cccc2sc3nncn3c12", "note": "[Tricyclazole, tricyclazole, reference compound]", "values": [{"measurement": "Grades of impaired leaves 0 (number of leaves)", "setting": "[2]", "result": 172}, {"measurement": "Grades of impaired leaves 1 (number of leaves)", "setting": "[2]", "result": 10}, {"measurement": "Grades of impaired leaves 3 (number of leaves)", "setting": "[2]", "result": 12}, {"measurement": "Grades of impaired leaves 5 (number of leaves)", "setting": "[2]", "result": 6}, {"measurement": "Incident rate", "setting": "[2]", "result": 14}, {"measurement": "Infected index", "setting": "[2]", "result": 4.22}, {"measurement": "Protecting efficacy", "setting": "[2]", "result": 75.83}, {"measurement": "Damage rate", "setting": "[3]", "result": 1.63, "unit": "%"}, {"measurement": "Grades of impaired ears 0 (number of ears)", "setting": "[3]", "result": 184}, {"measurement": "Grades of impaired ears 1 (number of ears)", "setting": "[3]", "result": 16}, {"measurement": "Grades of impaired ears 3 (number of ears)", "setting": "[3]", "result": 9}, {"measurement": "Grades of impaired ears 5 (number of ears)", "setting": "[3]", "result": 2}, {"measurement": "Grades of impaired ears 7 (number of ears)", "setting": "[3]", "result": 2}, {"measurement": "Grades of impaired ears 9 (number of ears)", "setting": "[3]", "result": 0}, {"measurement": "Impaired ears rate", "setting": "[3]", "result": 13.62, "unit": "%"}, {"measurement": "Infected index", "setting": "[3]", "result": 3.5}]}
{"molecule": "C[C@@H]1[C@H](O)[C@@H](C)/C=C/C=C/C=C/C=C/C=C/C=C/C=C/[C@H](O[C@@H]2O[C@H](C)[C@@H](O)[C@H](N)[C@@H]2O)C[C@@H]2O[C@](O)(C[C@@H](O)C[C@@H](O)[C@H](O)CC[C@@H](O)C[C@@H](O)CC(=O)O[C@H]1C)C[C@H](O)[C@H]2C(=O)O", "note": "[amphotericin B, reference compound]", "values": [{"measurement": "effect on growth of C. albicans", "setting": "[1]; 2 ug/ml, M-H liquid medium", "result": "completely inhibited"}, {"measurement": "spores under microscope", "setting": "[1]", "result": "scarcely observed"}]}
{"molecule": "B1", "values": [{"measurement": "antifungal effects", "setting": "[4]", "result": "definite antifungal effects"}, {"measurement": "total effects against rice blast disease relative to tricyclazole", "setting": "[2]; concentration and molar basis taken together, both in vivo protecting assays (Tables I and II)", "result": "10^4 to 10^5 times"}, {"measurement": "protecting effects relative to tricyclazole", "setting": "[2]; on a molar basis, both in vivo protecting assays (Tables I and II)", "result": "three hundred times greater"}, {"measurement": "Grades of impaired leaves 0 (number of leaves)", "setting": "[2]", "result": 67}, {"measurement": "Grades of impaired leaves 1 (number of leaves)", "setting": "[2]", "result": 12}, {"measurement": "Grades of impaired leaves 3 (number of leaves)", "setting": "[2]", "result": 13}, {"measurement": "Grades of impaired leaves 5 (number of leaves)", "setting": "[2]", "result": 8}, {"measurement": "Incident rate", "setting": "[2]", "result": 16.5}, {"measurement": "Infected index", "setting": "[2]", "result": 5.05}, {"measurement": "Protecting efficacy", "setting": "[2]", "result": 70.94}, {"measurement": "Damage rate", "setting": "[3]", "result": 0.53, "unit": "%"}, {"measurement": "Grades of impaired ears 0 (number of ears)", "setting": "[3]", "result": 218}, {"measurement": "Grades of impaired ears 1 (number of ears)", "setting": "[3]", "result": 19}, {"measurement": "Grades of impaired ears 3 (number of ears)", "setting": "[3]", "result": 5}, {"measurement": "Grades of impaired ears 5 (number of ears)", "setting": "[3]", "result": 0}, {"measurement": "Grades of impaired ears 7 (number of ears)", "setting": "[3]", "result": 0}, {"measurement": "Grades of impaired ears 9 (number of ears)", "setting": "[3]", "result": 0}, {"measurement": "Impaired ears rate", "setting": "[3]", "result": 9.92, "unit": "%"}, {"measurement": "Infected index", "setting": "[3]", "result": 1.56}, {"measurement": "antifungal effect on Candida albicans in vivo", "setting": "[5]; in vivo", "result": "definite antifungal effect"}, {"measurement": "in vivo antifungal activity against systemic candidiasis relative to amphotericin B", "setting": "[5]; on a molar basis, Ph-CA1 5 ug/gm, amphotericin B 1 ug/gm", "result": "at least twenty times greater"}, {"measurement": "bodyweight", "setting": "[6]", "result": "increased"}, {"measurement": "microscopic findings in livers, kidneys or spleens", "setting": "[6]; hematoxylin and eosin", "result": "no microscopic evidence of necrosis or inflammation"}, {"measurement": "effect on growth of C. albicans", "setting": "[1]; 10 ug/ml, M-H liquid medium", "result": "completely inhibited"}, {"measurement": "spores under microscope", "setting": "[1]", "result": "scarcely observed"}, {"measurement": "antifungal effect on Candida albicans in vitro", "setting": "[1]", "result": "definite antifungal effect"}, {"measurement": "inhibitory effect relative to amphotericin B", "setting": "[1]; on a molar basis, Ph-CA1 70 kDa, amphotericin B about 0.9 kDa", "result": "approximately ten times greater"}, {"measurement": "antifungal effects", "setting": "[7]", "result": "definite antifungal effects"}, {"measurement": "antifungal effects", "setting": "[8]", "result": "definite antifungal effects"}, {"measurement": "antifungal effects", "setting": "[9]", "result": "definite antifungal effects"}, {"measurement": "cell membrane damage (propidium iodide entry, cells stained red)", "setting": "[10]", "result": "cells became red"}, {"measurement": "antifungal effects relative to known antifungal antibiotics", "setting": "[11]", "result": "one hundred to one thousand times greater"}, {"measurement": "inhibition zone", "setting": "[12]", "result": "inhibition-zone"}]}
{"molecule": "B2", "values": [{"measurement": "inhibition effect relative to that of Ph-CA1", "setting": "[1]; 10 ug/ml, M-H liquid medium", "result": "about 30%"}, {"measurement": "antifungal effect on Candida albicans in vitro", "setting": "[1]", "result": "almost had no effect"}]}
